Data on 13 molecules can be found in patent publication US20230295275A1 (FLAGSHIP PIONEERING INNOVATIONS VI, published 2023).

Residue numbers refer to the chain shown, from its start.

B1: AB-1 full-length IgG1 (antibody, V domains shown)
VH: QMQLVQSGTEVKKPGESLKISCKGSGYGFITVWIGWVRQMPGKGLEWMGIIYPGDSETRYSPSFQGQVTISADKSINTAYLQWSSLKASDTAIYYCAGGSGISTPMDVWGQGTTVTVSS
VL: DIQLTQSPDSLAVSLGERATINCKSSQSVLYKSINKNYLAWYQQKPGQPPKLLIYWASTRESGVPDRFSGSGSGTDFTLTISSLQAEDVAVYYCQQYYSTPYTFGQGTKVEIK
B2: AB-2 full-length IgG1 (antibody, V domains shown)
VH: B1 VH with Y27S, F29T
VL: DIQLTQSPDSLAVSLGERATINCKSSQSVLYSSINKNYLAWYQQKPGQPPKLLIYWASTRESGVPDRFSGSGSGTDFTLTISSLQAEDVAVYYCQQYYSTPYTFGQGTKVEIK
B3: AB-4 full-length IgG1 (antibody, V domains shown)
VH: B1 VH with Y27S, V32Y, S103H
VL: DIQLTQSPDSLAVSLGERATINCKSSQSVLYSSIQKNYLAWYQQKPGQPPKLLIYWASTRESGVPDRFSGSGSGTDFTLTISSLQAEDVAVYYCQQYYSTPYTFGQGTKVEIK
B4: AB-3 full-length IgG1 (antibody, V domains shown)
VH: B1 VH with Y27S
VL: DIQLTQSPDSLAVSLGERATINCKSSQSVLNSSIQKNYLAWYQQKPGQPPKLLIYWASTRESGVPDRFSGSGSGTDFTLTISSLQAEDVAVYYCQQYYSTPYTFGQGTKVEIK
B5: AB-12 IgG1 (antibody, V domains shown)
VH: B1 VH with Q1E, M2V, T9A, Y27S, G35S, N77S, I93M
VL: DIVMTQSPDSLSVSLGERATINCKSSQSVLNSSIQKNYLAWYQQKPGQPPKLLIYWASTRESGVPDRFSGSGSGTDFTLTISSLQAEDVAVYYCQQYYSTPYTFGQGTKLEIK
B6: AB-11 IgG1 (antibody, V domains shown)
VH: B1 VH with Q1E, M2V, T9A, Y27S, Q65E, N77S, I93M
VL: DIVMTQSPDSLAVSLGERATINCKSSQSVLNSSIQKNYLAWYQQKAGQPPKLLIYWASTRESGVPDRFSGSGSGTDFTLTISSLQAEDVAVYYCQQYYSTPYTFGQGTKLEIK
B7: AB-10 IgG1 (antibody, V domains shown)
VH: B1 VH with Q1E, M2V, T9A, E16G, Y27S, N77S, I93M
VL: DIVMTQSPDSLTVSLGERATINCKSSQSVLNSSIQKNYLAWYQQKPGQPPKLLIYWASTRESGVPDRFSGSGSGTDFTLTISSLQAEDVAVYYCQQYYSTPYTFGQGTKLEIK
B8: AB-13 IgG1 (antibody, V domains shown)
VH: B1 VH with Q1E, M2V, T9A, Y27S, I70L, N77S, I93M, Q111K
VL: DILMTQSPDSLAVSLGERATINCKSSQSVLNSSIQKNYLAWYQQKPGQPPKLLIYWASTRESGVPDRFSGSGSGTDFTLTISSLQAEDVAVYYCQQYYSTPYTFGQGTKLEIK
B9: AB-8 IgG1 (antibody, V domains shown)
VH: B1 VH with Q1E, M2V, T9A, Y27S, S61N, P62Q, Q65K, N77S, I93M, T114M
VL: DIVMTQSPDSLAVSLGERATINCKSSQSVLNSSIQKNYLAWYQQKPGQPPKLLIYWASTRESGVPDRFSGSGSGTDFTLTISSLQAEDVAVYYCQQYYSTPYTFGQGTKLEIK
B10: AB-9 IgG1 (antibody, V domains shown)
VH: B1 VH with Q1E, M2V, T9A, K23Q, Y27S, N77S, I93M
VL: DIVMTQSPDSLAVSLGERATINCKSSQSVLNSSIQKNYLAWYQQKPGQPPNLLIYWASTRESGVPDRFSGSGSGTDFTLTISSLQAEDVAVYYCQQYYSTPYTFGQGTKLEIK
B11: AB-7 full-length IgG1 (antibody, V domains shown)
VH: B1 VH with Y27S, V32Y, S103Y
VL: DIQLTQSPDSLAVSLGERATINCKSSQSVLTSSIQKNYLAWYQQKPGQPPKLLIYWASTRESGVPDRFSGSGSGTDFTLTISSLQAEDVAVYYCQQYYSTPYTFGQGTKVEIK
B12: AB-5 full-length IgG1 (antibody, V domains shown)
VH: B1 VH with Y27S, V32Y, S103Y
VL: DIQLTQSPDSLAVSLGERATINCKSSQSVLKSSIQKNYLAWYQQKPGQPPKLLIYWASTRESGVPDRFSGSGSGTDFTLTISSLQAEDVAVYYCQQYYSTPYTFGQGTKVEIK
B13: AB-6 full-length IgG1 (antibody, V domains shown)
VH: B1 VH with Y27S, F29L, S103Y
VL: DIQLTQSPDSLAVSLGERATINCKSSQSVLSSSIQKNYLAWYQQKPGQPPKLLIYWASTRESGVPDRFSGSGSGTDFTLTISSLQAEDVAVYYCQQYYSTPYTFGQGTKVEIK

In one assay the target is T1, SARS-CoV-2 receptor binding domain (RBD) (SARS-CoV-2, UniProt P0DTC2 319-527).
Test: not given
On to B1, for which binding was characterised by a dissociation constant (Kd) of 14.6 nM.

B2 displayed a Kd of 84.9 nM.

Consider B3, for which the Kd was 36.1 nM.

On to B4, for which the Kd was found to be 38.8 nM.

The target of the next assay is SARS-CoV-2-Spike (wildtype, on virus) (SARS-CoV-2, UniProt P0DTC2 14-1273). Briefly: cell-based or functional assay.
On to B1, for which the “Neutralization (ng/mL), Authentic Virus IC50” value is 14200 ng/mL; the “Neutralization (ng/mL), Authentic Virus IC80” value turned out to be 25000 ng/mL; the “Neutralization (ng/mL), Pseudovirus IC50” value stood at 142 ng/mL.

With B2, the “Neutralization (ng/mL), Authentic Virus IC50” value came to 25000 ng/mL; the “Neutralization (ng/mL), Authentic Virus IC80” value turned out to be 25000 ng/mL; the “Neutralization (ng/mL), Pseudovirus IC50” value turned out to be 324 ng/mL.

As to B3, the “Neutralization (ng/mL), Pseudovirus IC50” value was determined as 86.5 ng/mL.

Turning to B4, the “Neutralization (ng/mL), Authentic Virus IC50” value worked out at 25000 ng/mL and the “Neutralization (ng/mL), Authentic Virus IC80” value was determined as 25000 ng/mL.

The target in a further assay is T1, SARS-CoV-2 receptor binding domain (RBD). Briefly: DELFIA, RBD coated on plate, IgG1 in solution.
For the molecule B5, the binding result is on record as “binds”.

Take B6: the binding result is on record as “binds”.

For the molecule B7, the binding result is “binds”.

In the case of B8, the binding result is listed as “binds”.

B9: the binding result is on record as “binds”.

As for B10, the binding result is given as “binds”.

For the next assay the target is unchanged. Briefly: BLI (Octet Red96e), IgG on AHC biosensors, RBD in solution.
As for B1, the affinity, expressed as Kd, was 9.5 nM; the koff is 0.0091 s⁻¹; the on-rate (kon) amounted to 960000 M⁻¹ s⁻¹.

Another assay shares this target. Put plainly: BLI (Octet Red96e), IgG1 on AHC biosensors, RBD in solution.
For B1, binding was characterised by a dissociation constant (Kd) of 3.3 nM, the Req was 0.98 nm shift, the Response came out at 1.06 nm and the kobs worked out at 0.023 s⁻¹. Further, the koff amounted to 0.00074 s⁻¹ and the on-rate (kon) is 220000 M⁻¹ s⁻¹.

Take B11: the dissociation constant Kd was found to be 1.5 nM, the Req was 0.55 nm shift, the Response was determined as 0.591 nm and the kobs is 0.024 s⁻¹. This molecule also registered an off-rate (koff) of 0.00036 s⁻¹ and an association rate constant (kon) of 230000 M⁻¹ s⁻¹.

As to B12, the dissociation constant Kd was 0.3 nM, the Req turned out to be 1.8 nm shift, the Response stood at 1.84 nm and the kobs stood at 0.012 s⁻¹. The molecule also yielded a dissociation rate constant (koff) of 3.6e-05 s⁻¹ and a kon of 120000 M⁻¹ s⁻¹.

In the case of B4, the Kd was found to be 4.5 nM, the Req amounted to 1.3 nm shift, the Response came out at 1.42 nm and the kobs was 0.022 s⁻¹. This molecule also gave a dissociation rate constant (koff) of 0.00096 s⁻¹ and an on-rate constant (kon) of 210000 M⁻¹ s⁻¹.

As for B13, the Kd came to 0.96 nM, the Req was 0.48 nm shift, the Response amounted to 0.485 nm and the kobs turned out to be 0.031 s⁻¹. The koff is 0.00029 s⁻¹ and the on-rate (kon) was determined as 300000 M⁻¹ s⁻¹.

The target is the same in a further assay. Put plainly: BLI (Octet), IgG on anti-human Fc biosensors, RBD in solution.
For B1, the dissociation constant Kd was determined as 9.5 nM.
